From article PMC8395052

Target: T1, human estrogen receptor-alpha (ERα) fused at its N-terminus with NanoLuc luciferase (Nluc-ERα) or HaloTag (HT-ERα) (human), P03372
T1 chain: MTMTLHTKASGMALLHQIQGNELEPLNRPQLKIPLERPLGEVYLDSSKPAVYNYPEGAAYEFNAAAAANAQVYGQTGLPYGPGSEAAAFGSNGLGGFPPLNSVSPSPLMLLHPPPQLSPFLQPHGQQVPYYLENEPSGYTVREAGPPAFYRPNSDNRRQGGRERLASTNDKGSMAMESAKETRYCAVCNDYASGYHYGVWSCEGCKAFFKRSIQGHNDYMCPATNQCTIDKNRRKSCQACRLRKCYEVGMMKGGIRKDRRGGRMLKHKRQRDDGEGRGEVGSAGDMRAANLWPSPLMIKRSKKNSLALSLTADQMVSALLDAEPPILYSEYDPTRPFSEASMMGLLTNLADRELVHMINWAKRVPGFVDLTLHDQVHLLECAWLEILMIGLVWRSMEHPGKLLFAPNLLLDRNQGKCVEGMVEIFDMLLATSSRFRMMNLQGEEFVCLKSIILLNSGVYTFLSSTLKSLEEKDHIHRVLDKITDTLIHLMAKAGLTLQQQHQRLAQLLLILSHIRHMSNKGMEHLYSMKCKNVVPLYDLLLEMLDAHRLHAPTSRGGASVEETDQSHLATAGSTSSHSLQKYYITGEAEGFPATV
Experiment: FRET or BRET; NanoBRET in living HEK293 cells co-transfected with Nluc-ERα (donor) and HT-ERα (acceptor), 1:1; HaloTag NanoBRET 618 ligand; cells treated 24 h with E2, 17α-estradiol, diethylhexyl phthalate, bisphenol A or 4-nonylphenol; fold induction of the corrected BRET unit (618 nm/460 nm) over the vehicle control (0.1% DMSO)
Conditions: remark: other sources report otherwise

fold induction of the BRET signal over vehicle control, with 4-nonylphenol: 2.3 fold
fold induction of the BRET signal over vehicle control, with 17α-estradiol 10^-8 M: 2.7 fold
fold induction of the BRET signal over vehicle control, with E2 10^-9 M: 2.7 fold
fold induction of the BRET signal over vehicle control, with bisphenol A 10^-5 M: 5.7 fold
fold induction of the BRET signal over vehicle control, with diethylhexyl phthalate: 2.3 fold
B1: human estrogen receptor-alpha (ERα) fused at its N-terminus with NanoLuc luciferase (Nluc-ERα) or HaloTag (HT-ERα), P03372 1-595 (receptor)
chain: MTMTLHTKASGMALLHQIQGNELEPLNRPQLKIPLERPLGEVYLDSSKPAVYNYPEGAAYEFNAAAAANAQVYGQTGLPYGPGSEAAAFGSNGLGGFPPLNSVSPSPLMLLHPPPQLSPFLQPHGQQVPYYLENEPSGYTVREAGPPAFYRPNSDNRRQGGRERLASTNDKGSMAMESAKETRYCAVCNDYASGYHYGVWSCEGCKAFFKRSIQGHNDYMCPATNQCTIDKNRRKSCQACRLRKCYEVGMMKGGIRKDRRGGRMLKHKRQRDDGEGRGEVGSAGDMRAANLWPSPLMIKRSKKNSLALSLTADQMVSALLDAEPPILYSEYDPTRPFSEASMMGLLTNLADRELVHMINWAKRVPGFVDLTLHDQVHLLECAWLEILMIGLVWRSMEHPGKLLFAPNLLLDRNQGKCVEGMVEIFDMLLATSSRFRMMNLQGEEFVCLKSIILLNSGVYTFLSSTLKSLEEKDHIHRVLDKITDTLIHLMAKAGLTLQQQHQRLAQLLLILSHIRHMSNKGMEHLYSMKCKNVVPLYDLLLEMLDAHRLHAPTSRGGASVEETDQSHLATAGSTSSHSLQKYYITGEAEGFPATV
modifications: here or on the partner: HaloTag NanoBRET 618 ligand on the HaloTag of the acceptor copy; HaloTag NanoBRET 618 ligand on the HaloTag of the acceptor copy
